No end group written: not given here.

Consider two molecules from patent US20220146528A1 (NORDIC BIOSCIENCE A S, published 2022).

To fix the notation:
B1: selection peptide GIATKGLNGP (peptide)
peptide: H-GIATKGLNGP
B2: monoclonal antibody NB117-2F4 (antibody, mouse IgG2b, kappa, V domains shown)
VH: EVQLQESGPSLVKPSQTLSLTCSVTGDSITSGFWSWIRKFPGNKLEFMGYIKYSGDTYFNPSLKSRISITRDTSKNQYYLQLNSVTPEDTATYYCSDMDYWGQGTSVTVSS
VL: DVVMTQTPRSLPVSLGDQASISCRSSQSLVHNNGNTYLHWYLQMPGQSPKLLIYKVSNRFSGVPDRFSGSGSGTDFTLKISRVEAEDLGVYFCSQITHVPWTFGGGTKLEIKR
notes: also called mAb

Assay [1] concerns the target B2. Briefly: competitive ELISA (Col10neo): peptide standard competes with the coated …-k(Biotin) for 2F4. How it is done: A purified monoclonal antibody was first tested for peptide-binding specificity by three synthetic peptides, selection peptide ([…]; SEQ ID NO: 1), elongation of the selection peptide ([…]; SEQ ID NO: 3) and truncation of the selection peptide ([…]; SEQ ID NO: 4), and then used in a competitive immunoassay. After optimization with buffer, temperature, incubation time and concentrations for key reagents, the final protocol for detection of ⁴⁷⁹GIATKG (SEQ ID NO: 2) assay was developed as follows: a 96-well streptavidin pre-coated micro plate was coated with 1 ng/ml biotinylated peptide, […]-k(Biotin) (SEQ ID NO: 5) dissolved in 50 mM PBS-BTB buffer (phosphate-buffered saline with bovine serum albumin and Tween-20, pH7.4) for 30 min at 20° C. Then, the plate was washed 5 times by standard wash buffer (20 mM Tris, 50 mM NaCl, pH 7.2). […] The colorimetric reaction was stopped by adding 100 μL stopping solution (1% H₂SO₄) and measured at 450 nm with 650 nm as the reference.
The inter- and intra-plate variation were determined by 10 independent runs of quality control panel (three human sera and two peptide standard) in duplicate. The lower limit of detection (LLOD) was calculated as 3SD of the mean value of 21 zero standard. […] Percent recovery was calculated as the measured concentration divided by the expected concentration corrected for dilution.

Assay [2] concerns the target B1. Briefly: competitive ELISA, displacement of 2F4 from the coated biotinylated peptide. How it is done: (§1) A purified monoclonal antibody was first tested for peptide-binding specificity by three synthetic peptides, selection peptide ([…]; SEQ ID NO: 1), elongation of the selection peptide ([…]; SEQ ID NO: 3) and truncation of the selection peptide ([…]; SEQ ID NO: 4), and then used in a competitive immunoassay. After optimization with buffer, temperature, incubation time and concentrations for key reagents, the final protocol for detection of ⁴⁷⁹GIATKG (SEQ ID NO: 2) assay was developed as follows: a 96-well streptavidin pre-coated micro plate was coated with 1 ng/ml biotinylated peptide, […]-k(Biotin) (SEQ ID NO: 5) dissolved in 50 mM PBS-BTB buffer (phosphate-buffered saline with bovine serum albumin and Tween-20, pH7.4) for 30 min at 20° C. Then, the plate was washed 5 times by standard wash buffer (20 mM Tris, 50 mM NaCl, pH 7.2). 20 μL of the peptide standards, kit controls or samples were added to appropriate wells, followed by 100 μL of 23 ng/ml monoclonal antibody in 50 mM PBS-BTB buffer containing 5% Osteocalcin EIA Puf-Liq (Roche diagnostics, Germany), and incubated overnight (20±1 hr) at 4° C. After 5 times wash, 100 μL of goat anti-mouse secondary antibody (115-035-003, Jackson ImmunoResearch) was added and incubated for 1 hr at 20° C. After this step, the plate was washed for 5 times with wash buffer. Finally, 100 μL 3,3′,5,5′-tetramethylbenzidine (TMB) was added to each well and incubated for 15 min at 20° C. in the dark. The colorimetric reaction was stopped by adding 100 μL stopping solution (1% H₂SO₄) and measured at 450 nm with 650 nm as the reference.

The target in assay [3] is T1, elongation of the selection peptide AGIATKGLNGP (human).
T1 construct: Synthetic peptide: the selection peptide with one alanine added at the N-terminus; also called elongated peptide; N-extended elongated version
T1 peptide: AGIATKGLNGP
The description is as above. As to the method:
as §1

Assay [4] has as its target T2, truncation of the selection peptide IATKGLNGP (human).
T2 construct: Synthetic peptide: the selection peptide without its N-terminal glycine; also called truncated peptide; N-truncated shortened version
T2 peptide: IATKGLNGP
The description is as above. How it is done: as §1

In assay [5] the target is T3, biotinylated synthetic peptide GIATKGLNGP-k(Biotin) (human, not fully specified (C-terminus); also: lowercase k not explained).
T3 construct: Captured on streptavidin-coated microplates; also called biotinylated peptide; coater peptide
T3 peptide: H-GIATKGLNGP
The experiment in a line: competitive ELISA, biotinylated peptide on streptavidin plate (FIG. 1 legend). As to the method:
as §1, with “After this step, the plate was washed for 5 times with wash buffer. Finally, 100 μL 3,3′,5,5′-tetramethylbenzidine (TMB) was added to each well and incubated for 15 min at 20° C. in the dark.” left out

For the molecule B1, the half-maximal inhibitory concentration (IC50) in assay [1] was 0.0419 µg/mL.

Turning to B2, the binding result is “binds” in assay [2], “no binding (tested: 1000 ng/mL)” in assay [3], “no binding (tested: 1000 ng/mL)” in assay [4] and “binds” in assay [5].
